Patent publication US20250295803A1, “5T4 ANTIBODY-DRUG CONJUGATES AND USES THEREOF” (EXELIXIS, INC., priority 2022, published 2025)

T1: unconjugated human TPBG/5T4 protein with a c-terminal polyhistidine and Avi tag (AcroBiosystems Cat. No. … (human, UniProt Q13641 32-355))
T1 construct: Bought protein; also called Acro TPGH52E5; Acro Catalog No. TPGH52E; not shown: C-terminal polyhistidine and Avi tag
T1 sequence: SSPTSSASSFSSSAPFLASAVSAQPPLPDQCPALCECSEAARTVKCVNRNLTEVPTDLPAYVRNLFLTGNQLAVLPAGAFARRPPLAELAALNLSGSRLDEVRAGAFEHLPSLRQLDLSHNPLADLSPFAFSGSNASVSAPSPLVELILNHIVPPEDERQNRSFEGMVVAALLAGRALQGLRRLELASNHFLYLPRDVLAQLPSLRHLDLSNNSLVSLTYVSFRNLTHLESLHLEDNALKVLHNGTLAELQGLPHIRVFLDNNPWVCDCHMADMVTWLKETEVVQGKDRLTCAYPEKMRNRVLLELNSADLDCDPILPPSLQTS

T2: HEK293 and CHO cells transfected to express human 5T4 (Homo sapiens, UniProt Q13641)
T2 construct: expressed in transfected cells; host or cells: HEK293 and CHO
T2 sequence (Q13641 32-420): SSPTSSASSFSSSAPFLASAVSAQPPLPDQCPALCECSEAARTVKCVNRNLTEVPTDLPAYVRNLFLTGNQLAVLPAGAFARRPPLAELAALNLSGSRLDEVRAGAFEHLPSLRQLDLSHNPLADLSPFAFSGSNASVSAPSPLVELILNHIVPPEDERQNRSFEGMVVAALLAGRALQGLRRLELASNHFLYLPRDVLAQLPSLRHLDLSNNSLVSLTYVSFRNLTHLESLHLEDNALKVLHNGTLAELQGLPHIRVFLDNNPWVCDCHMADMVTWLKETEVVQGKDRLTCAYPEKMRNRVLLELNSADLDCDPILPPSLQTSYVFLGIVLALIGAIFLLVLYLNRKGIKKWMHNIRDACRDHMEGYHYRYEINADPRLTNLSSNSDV


Key:
[1] = target: T1, unconjugated human TPBG/5T4 protein …; assay: ELISA on coated human 5T4 His-Avi (Acro TPG-H52E5); antibody condition: pH 8.5 Day 7
Description: (§1) A. Normal Binding Unconjugated antibodies were tested for their ability to bind to human 5T4 (hu5T4) using ELISA. On Day 1, unconjugated human TPBG/5T4 protein with a c-terminal polyhistidine and Avi (AVITAG™) tag (AcroBiosystems (Newark, DE, USA), Cat. No. TPG-H52E5) was diluted 2 μg/mL in PBS, mixed thoroughly, plated 100 μL per well in a 96-well plate (Nunc MAXISORP®) and incubated overnight at 4° C.

[2] = target: T1, unconjugated human TPBG/5T4 protein …; assay: ELISA on coated human 5T4 His-Avi (Acro TPG-H52E5); antibody condition: pH 5.5 Day 7
Description: as §1

[3] = target: T1, unconjugated human TPBG/5T4 protein …; assay: ELISA on coated human 5T4 His-Avi (Acro TPG-H52E5); antibody condition: pH 8.5 Day 14
Description: as §1

[4] = target: T1, unconjugated human TPBG/5T4 protein …; assay: Octet, antibody on AHC sensors, human 5T4 in solution (monovalent); Acro TPGH52E5 Lot B465-87AF1-JP
Description: Monovalent binding assays were employed to determine the relative affinity of each 5T4 binder obtained by the phage display in Example 1 to human 5T4. Human 5T4 was purchased from Acro Biosystems (Acro Catalog No. TPGH52E) and also produced separately. The monovalent interaction of binders to human 5T4 was monitored using an Octet (Pall ForteBio) instrument. For these assays, 36 nM antibody was immobilized on anti-human Fc (AHC) sensors in 1× kinetic buffer (ForteBio). The sensors were then dipped in wells containing a 3× serial dilution of human 5T4 ranging from 1 μM to 1.37 nM. The association was allowed to reach equilibrium. Sensors were then moved to wells containing only 1× kinetic buffer and allowed to dissociate to equilibrium. Association and dissociation rates were measured and from these, monovalent KDS were calculated using the onboard analysis software (ForteBio).

[5] = target: T2, HEK293 and CHO cells transfected to express human 5T4; assay: Cell binding to transfected HEK293 and CHO cells, human 5T4; format: cell-based
Description: Unconjugated antibodies were tested for their ability to bind to HEK293 and CHO cells transfected to express human, cyno, rat, or mouse 5T4.

MCF-7 cells = assay: Cell binding (flow cytometry), MCF-7 cells; format: cell-based
Description: Antibodies that were selected for binding to 5T4, for example, such as those described in Example 2, were evaluated for binding to cells that express 5T4. Cells were harvested at 70-90% confluence on the day of the assay. In a v-bottom 96-well plate (Costar 3897), 100,000 cells per well were incubated with 50 μL per well 8- or 12-point antibody dilution series for 30 minutes at +4° C. After incubation, cells were washed once with PBS by centrifugation at 200×g for 5 minutes. Cells were then incubated with 50 μL per well of Alexa Fluor 488 Goat anti-human IgG Fab (Jackson Immuno Research 109-547-003) at 1:100 dilution for 30 minutes at +4° C. Cells were washed twice with PBS by centrifugation at 200×g for 5 minutes and were acquired on iQue Screener Plus (Sartorius). Mean fluorescence intensities of BL1 (Alexa-Fluor-488) channel were plotted against antibody concentrations to generate a dose response curve and EC50 values.

EC50 [1] [nM] | EC50 [2] [nM] | EC50 [3] [nM] | Kd [4] [nM] | Molecule | reactivity to cells transfected to express human 5T4 [5] | binding to MCF-7 cells (MCF-7 cells)
0.158 | 0.19 | 0.167 | 21.1 | mAbA17 (antibody, V domains shown, also called Antibody mAbA17) VH: EVQLVESGGGLVQPGGSLRLSCAASGFTFSRYWIHWVRQAPGKGLEWVAAIFPYSGSTLYADSVKGRFTISADTSKNTAYLQMNSLRAEDTAVYYCARSPSRSILPSGLDYWGQGTLVTVSS VL: DIQMTQSPSSLSASVGDRVTITCRASQSVSSAVAWYQQKPGKAPKLLIYSASSLYSGVPSRFSGSRSGTDFTLTISSLQPEDFATYYCQQGDGSPYTFGQGTKVEIKR |  | 
0.143 | 0.132 | 0.131 | 11.2 | mAbA15 (antibody, V domains shown, also called Antibody mAbA15) VH: EVQLVESGGGLVQPGGSLRLSCAASGFTFSSYYIHWVRQAPGKGLEWVAYITSTGSYTEYADSVKGRFTISADTSKNTAYLQMNSLRAEDTAVYYCARYDRSTRYSGLDYWGQGTLVTVSS VL: DIQMTQSPSSLSASVGDRVTITCRASQSVSSAVAWYQQKPGKAPKLLIYSASSLYSGVPSRFSGSRSGTDFTLTISSLQPEDFATYYCQQAYATPVTFGQGTKVEIKR |  | 
0.128 | 0.124 | 0.136 | 30.2 | mAbA4 (antibody, V domains shown, also called Antibody mAbA4) VH: EVQLVESGGGLVQPGGSLRLSCAASGFTFSRYYIHWVRQAPGKGLEWVAFISPGGSYTYYADSVKGRFTISADTSKNTAYLQMNSLRAEDTAVYYCAREYYSMGVLDYWGQGTLVTVSS VL: DIQMTQSPSSLSASVGDRVTITCRASQSVSSAVAWYQQKPGKAPKLLIYSASSLYSGVPSRFSGSRSGTDFTLTISSLQPEDFATYYCQQAYESPYTFGQGTKVEIKR |  | 
 |  |  |  | mAbA17: 5T4 antibody comprising VH of SEQ ID NO:62 and VL of SEQ ID NO:63 (antibody, V domains shown, Antibody mAbA17 VH Sequence; Antibody mAbA17 VL Sequence) VH: EVQLVESGGGLVQPGGSLRLSCAASGFTFSRYWIHWVRQAPGKGLEWVAAIFPYSGSTLYADSVKGRFTISADTSKNTAYLQMNSLRAEDTAVYYCARSPSRSILPSGLDYWGQGTLVTVSS VL: DIQMTQSPSSLSASVGDRVTITCRASQSVSSAVAWYQQKPGKAPKLLIYSASSLYSGVPSRFSGSRSGTDFTLTISSLQPEDFATYYCQQGDGSPYTFGQGTKVEIK | reactive | binding
 |  |  |  | mAbA4: 5T4 antibody comprising VH of SEQ ID NO:25 and VL of SEQ ID NO:26 (antibody, V domains shown, Antibody mAbA4 VH Sequence; Antibody mAbA4 VL Sequence) VH: EVQLVESGGGLVQPGGSLRLSCAASGFTFSRYYIHWVRQAPGKGLEWVAFISPGGSYTYYADSVKGRFTISADTSKNTAYLQMNSLRAEDTAVYYCAREYYSMGVLDYWGQGTLVTVSS VL: DIQMTQSPSSLSASVGDRVTITCRASQSVSSAVAWYQQKPGKAPKLLIYSASSLYSGVPSRFSGSRSGTDFTLTISSLQPEDFATYYCQQAYESPYTFGQGTKVEIK | reactive | binding
 |  |  |  | mAbA15: 5T4 antibody comprising VH of SEQ ID NO:44 and VL of SEQ ID NO:45 (antibody, V domains shown, Antibody mAbA15 VH Sequence; Antibody mAbA15 VL Sequence) VH: EVQLVESGGGLVQPGGSLRLSCAASGFTFSSYYIHWVRQAPGKGLEWVAYITSTGSYTEYADSVKGRFTISADTSKNTAYLQMNSLRAEDTAVYYCARYDRSTRYSGLDYWGQGTLVTVSS VL: DIQMTQSPSSLSASVGDRVTITCRASQSVSSAVAWYQQKPGKAPKLLIYSASSLYSGVPSRFSGSRSGTDFTLTISSLQPEDFATYYCQQAYATPVTFGQGTKVEIK | reactive | binding
